Values of other authors, collected in patent US20260069559A1, “COMBINATIONS OF RXFP1 MODULATORS AND SGLT2 INHIBITORS” (ASTRAZENECA AB, priority 2022, published 2026).

Settings: after receiving serelaxin intravenously; fraction of patients

Substance: serelaxin
- patients who experienced a significant blood pressure drop (>40 mm Hg): approximately one third
